Laboratory results as given in patent US20240002497A1.

Experiments:
[1] = target: huNav1.7α + β1-β2-β3 (human Nav1.7α co-expressed with Navβ1, Navβ2 and Navβ3) (human) (UniProt Q15858); assay: FACS, CHO Flp-In cells; SD MFI 12
[2] = target: huNav1.7α (human Nav1.7 alpha subunit, expressed without β subunits) (human) (UniProt Q15858); assay: FACS, HEK293 cells; SD MFI 2
[3] = target: huNav1.7α + β1 (human Nav1.7α co-expressed with Navβ1) (human) (UniProt Q15858); assay: FACS, HEK293 cells; SD MFI 6

Negative control (Table 33)
Mean MFI [1]: 566 MFI
Mean MFI [2]: 723 MFI
Mean MFI [3]: 778 MFI
